Molecular target: RVFV Gn, WT sequence, transiently expressed in Expi293F cells (Rift Valley fever virus, GenBank …)
Assay: flow cytometry on cells
Settings: one partner purified

B1: RVFV-268 IgG1 (antibody, V domains shown)
VH: QVHLVESGGGVVQPGKSLRLSCAASGFIFNHFGIHWVRQSPGKGLEWVAVIWYDGSKKYFADSVKGRFSISRDNSQNTVYLQMNSLRTEDTAVYYCARERWSGHSYLDYWGHGALVTVSS
VL: SNVLTQPPSVSVAPGQTARISCGGNNLESKYVHWYQQKPGQAPVLVVYEDSGRPSGIPERFSGSNSGGTATLTISRVEAGDEADYYCQEWDTSSDYPVFGGGTKVTVL
notes: copies: 2 + 2
B1: binds.

Reference: article PMC10499838 (Nature Communications, 2023)
